104 substances from the supplement of paper PMC12042874 can be followed below.

± gives the uncertainty stated by the source.

A short description of this series: amyloid nucleation score (Sup35N fusion, yeast selection) (log enrichment); library NNK1; higher = more nucleation; inactive = no reads after selection. Summed up: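 Plasmid inserts were Illumina-sequenced at input and output from psi-negative yeast expressing Sup35N fused to peptides of 20 random codons. The yeast were induced with 100 μM copper sulfate for 24 hours and grown 7 days at 30°C on medium lacking adenine and uracil, and sequences with under 100 input reads were excluded. Nucleation score is the DiMSum log enrichment of output over input reads, centred on the mode score of non-aggregating sequences.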
For the substance FICRFDVHWHSGMFSLYPWC, the amyloid nucleation score came out at 0.682 ± 0.47.

As for VVLCGDCFSLSLFWDCLWPF, the amyloid nucleation score was 4.38 ± 0.078. The same measure for LKIKGGWVFVTSIW: -0.008 ± 0.35; for WSHSILCIQSRSRIYPTHWL: 0.495 ± 0.29; for YSIDTGS: “inactive”. For GYNSVYHLSNVALR the value was 0.928 ± 0.32.

For the substance VLGMWIWQYRYGDDYFLLFV, the amyloid nucleation score worked out at 2.7 ± 0.17. For CMWWSCGSNIVYVALLMWCH the value was -0.191 ± 0.4; for LMEIFLNLPPANKNSYNRR, -0.766 ± 2.4; for DIGHFHGTDMGCNIF, “inactive”. The same measure for EAVVRRLSEDSCMELSSDCR: 0.485 ± 0.52; for RNFLNAYW: -0.307 ± 0.85.

The substance RLQSKLLHCS gave an amyloid nucleation score of -0.169 ± 0.45. The same measure for MKSFSMLPYIIVFRYY: 0.823 ± 0.85; for LIGFSRVSSGFSPFTPAHCR: 2.04 ± 0.14.

For the substance PLTVVLRSV, the amyloid nucleation score result is “inactive”. The same measure for VVVFDKR: -0.041 ± 1; for FVGMSRFFKVH: -0.629 ± 0.39. For RCVFNRIKDFSVRDRWSFSG the value was 1.03 ± 0.73; for LMISGPYWR, -0.142 ± 0.56; for FSCGCIRYFSG, -0.115 ± 0.91. The same measure for RIAVWSSGSYCMYYTCWCNH: -0.191 ± 0.24; for RQVRMGFPGFWFMVIDYCRS: 0.499 ± 0.39. Substance NSTSCCVMGVSVRFMSFF returned an amyloid nucleation score of 7.498 ± 0.069.

As for FYMRSFLFDFQLFHVVGIWF, the amyloid nucleation score was -0.929 ± 0.39. In the case of YLASREDDINMDASLLSTHA, the amyloid nucleation score was 1.41 ± 0.66.

In turn, FTKFRYRTLINSYNFWGTGA gave an amyloid nucleation score of -0.115 ± 1.4. Substance GVFSSQDTRAIDLCSGVYVM displayed an amyloid nucleation score of 0.003 ± 1.2. For FVVLSRFACRLRLTR the value was 0.853 ± 0.55; for NWAKGNCYVAFRLKWRYNCG, 0.745 ± 0.74. For LPSSSPMTRR the value was -0.837 ± 1.7. The same measure for MQTLNCSPNQAHSSIFN: 0.915 ± 0.97; for IRPNMRAVKIEVQDVGSQCV: 0.428 ± 0.6; for QPFALNRLYHT: -0.591 ± 0.62. In turn, VYLSYVFMYS yielded an amyloid nucleation score of -0.445 ± 0.36. The same measure for SDERKGPGYPSMITSWQGGS: -1.31 ± 2.4; for YIHLMRYARNLLPFRYCV: -0.641 ± 0.5. For GKCVTWQASCLQCSKSNWYQ the value was 0.995 ± 0.81; for DDSFVLFW, -0.042 ± 0.55. Substance ISMGWWIDYGPY gave an amyloid nucleation score of -0.724 ± 0.81. For TLLPIKHSCHGNWINQLYGT the value was -0.485 ± 0.32; for VVMEMINFHPSTLCSILQ, 5.07 ± 0.11; for LSEKYTIPVLFHVLKIITGI, 0.495 ± 0.45. The same measure for SGSINENVKYSDTLVWLWKM: 4.92 ± 0.055. For PSGTGWRLDGSV the value was 0.09 ± 0.38; for LLVSGVRSRKTQRWSFRACS, 0.634 ± 0.7; for ITVRAISMWWRDSS, 0.263 ± 0.4. LVVFISRVFTNDITFRFANI gave an amyloid nucleation score of 0.675 ± 0.78. The same measure for YERIPFLDSGTYGIYDWTAR: -0.372 ± 0.3. For GSWCSRIK the value was 0.958 ± 0.35; for ISHLDG, -1.04 ± 2.4; for MRGAVKVGEMWNHISESRVG, 0.98 ± 0.6. With STKQFFRLAFRGPWKTGHKP, the amyloid nucleation score amounted to 0.273 ± 0.96. Take VKRRLSHYAHMDGFVCNIR: the amyloid nucleation score is 0.286 ± 1.4. For WFFHLTNLSFCCNPLVVPRV the value was -0.004 ± 0.78; for CTYTAPYAPSLMPGPRVGYI, “inactive”; for GKFLRGGHLVFRWATLYLSV, -0.604 ± 0.97.

In turn, NYSYNYLVVKRENTGYSGQV showed an amyloid nucleation score of 0.917 ± 0.42. In the case of FYGVRVTGAAFRALVMVSPR, the amyloid nucleation score amounted to 0.616 ± 1.1.

In turn, GFLTETDNCTICIFHMFVDN registered an amyloid nucleation score of 6.201 ± 0.059. The same measure for KSRRSCQQLIIVKHVVHARR: 4.08 ± 0.061; for RVWYCRGMCRP: -0.239 ± 0.93. Substance HRNWCCCCSCWSRLKMHLEL registered an amyloid nucleation score of -1.32 ± 0.64. For CKMNYGLVLAGSLGVGSGQD the value was 0.317 ± 0.42; for FRSVSGNMYTLLFRIE, 1.62 ± 0.24. For LFLWDVFGQLAFVRVGTICW, the amyloid nucleation score came to 1.14 ± 0.56. For CNWATLTMWLLSCIRPTPRS the value was -1.1 ± 2.4. The same measure for SFWYYGDEKNVTVNLGFNES: -0.233 ± 0.79; for PDGPANSSKDGDFCDKLR: 1.4 ± 0.6. As to SRVEWEDVYENVGGKGTSRE, the amyloid nucleation score is -0.087 ± 0.44. For the substance YNVCGELQDNIRCYISLTVL, the amyloid nucleation score entry is “inactive”. The same measure for REYNSYLLGVGHNLQLRSYI: “inactive”. LSCQTPQSDEMSVAESAWAY registered an amyloid nucleation score of -1.18 ± 1.2.

Regarding TEFSNAPPHTSAMVAYVLSY, the amyloid nucleation score is -1.52 ± 1.7. The same measure for RLAVKDNVCKLDMMSGCCLS: 5.45 ± 0.059. The same measure for VSASLDGPLSVRKGTSKAWD: -0.043 ± 1.4; for VLCSCAMGYMFFFRAMMFR: -0.038 ± 0.38. CFFYDCGWTCPLKNIGSYTF had an amyloid nucleation score of 0.07 ± 0.51. Take ATLVTV: the amyloid nucleation score turned out to be 0.759 ± 0.67.

Turning to MTKFCID, the amyloid nucleation score turned out to be 0.965 ± 0.66.

In the case of SSSFGHYDTWLYSSLFQGLT, the amyloid nucleation score amounted to 3.46 ± 0.14. As for FRIVGSRMFVLLLCYVSSGR, the amyloid nucleation score came to 0.241 ± 0.27. For RDWLLTLVLTLSQGPTTCAT the value was 0.247 ± 1.4; for LSPGYSHTN, -0.423 ± 0.6. The same measure for CKRLS: -0.216 ± 1.1; for SIRLHS: 2.65 ± 0.31; for LILRLVHKLGLCVPLSGSRG: -0.827 ± 1.7. For RMMSVGALGQG the value was 0.323 ± 0.76; for NLSWRISKHMALGVRCLWCH, 0.791 ± 0.72; for YCEYASVVLFGTELCFAWVY, 0.001 ± 0.73. With LWPTGSRLSDG, the amyloid nucleation score is -0.354 ± 0.51. VIHGC displayed an amyloid nucleation score of -0.14 ± 0.27. For EHHGGISGGNKCCSTCKSRR the value was 0.361 ± 1; for INRSSVESLVLTDLKHWTSG, 0.504 ± 0.49; for ENQFTVLSNGFDVIALFSFE, 1.07 ± 0.93. The same measure for DFGLCHAQNSITQAPDR: -0.153 ± 0.93; for SSLGIGFAPLISSFISC: -0.429 ± 0.64; for KGFLRFG: 0.333 ± 0.38.

The substance WCLGMWLLHVLTTETTFKCT displayed an amyloid nucleation score of -0.158 ± 0.34. Consider GRFKWCGCNNTLWVGISRN, for which the amyloid nucleation score was determined as 1.9 ± 0.15. For FLARNFCIC the value was 5.67 ± 0.064; for FLHFVYRI, -0.578 ± 1; for STTPQRLNFDMSTPISWIRQ, 0.173 ± 0.32. For INAQAVIGNFRGRYSVYNVH the value was 4.23 ± 0.065.
